Measured values reported in paper PMC9334217.

Experiments:
[1] = system: CCn1c(=NN=c2sc3cc(S(=O)(=O)O)ccc3n2CC)sc2cc(S(=O)(=O)O)ccc21; experiment: purified protein; details: 1.5 mM H2O2, 100 mM sodium acetate, pH 4.3, 25 °C, variant 29E4
[2] = target: PpDyP variant 6E10 (E188K/A142V/H125Y) (Pseudomonas putida MET94); experiment: crystal structure

Row | Substance | Km [1] [µM] | stoichiometry N [2]
1 | PpDyP (Pseudomonas putida KT2440; E188K/H125Y) | 810 ± 190 | 
2 | PpDyP variant 6E10 (E188K/A142V/H125Y) (enzyme) |  | 4
